FireProtDB (doi:10.1016/s0006-3495(99)76955-9)

Settings: Pseudomonas aeruginosa (strain ATCC 15692 / DSM 22644 / CIP 104116 / JCM 14847 / LMG 12228 / 1C / PRS 101 / PAO1); pH 7.03; 20 °C; Thermal; DSC; phosphate buffer 10 mM; sodium chloride 40 microM; reversible: no; whole UniProt chain shown

B1: Azurin wild type, P00282 (protein)
chain: MLRKLAAVSLLSLLSAPLLAAECSVDIQGNDQMQFNTNAITVDKSCKQFTVNLSHPGNLPKNVMGHNWVLSTAADMQGVVTDGMASGLDKDYLKPDDSRVIAHTKLIGSGEKDSVTFDVSKLKEGEQYMFFCTFPGHSALMKGTLTLK
For B1, the “unfolding enthalpy (calorimetric)” value was 14.6 kcal/mol and the unfolding free energy was 14.3 kcal/mol.
